For 34 molecules, koff results are on record in US20180291110A1 (Hoffmann-La Roche, published 2018).

Changes are numbered by the printed parent chain.

The chains are these.
B1: 2/99 VH12/VL6 (antibody, V domains shown)
VH: QVQLQESGPGLVKPSETLSLTCTVSGFSLSSYAMSWIRQPPGKGLEWIGYIWSGGSTDYNPSLKSRVTISVDTSKNQFSLKLSSVTAADTAVYYCARRYGTSYPDYGDANGFDPWGQGTLVTVSS
VL: AIQLTQSPSSLSASVGDRVTITCRASQSISSYLSWYQQKPGKAPKLLIYRASTLASGVPSRFSGSGSGTDFTLTISSLQPEDFATYYCQQSYSSSNVDNTFGGGTKVEIK
B2: 2/99 VH1/VL8 (antibody, V domains shown)
VH: VQLVETGGGLIQPGGSLRLSCAASGFSLSSYAMSWVRQAPGKGLEWVGYIWSGGSTDYADSVKGRFTISRDNSKNTLYLQMNSLRAEDTAVYYCARRYGTSYPDYGDANGFDPWGQGTLVTVSS
VL: B1 VL with I2Y
B3: 2/99 VH13/VL6 (antibody, V domains shown)
VH: B1 VH with F78V
VL: B1 VL
B4: 2/99 VH15/VL7 (antibody, V domains shown)
VH: QQLQESGPGLVKPSETLSLTCTVSGFSLSSYAMSWVRQPPGKGLEWIGYIWSGGSTDYNPSLKSRVTISVDTSKNQVSLKLSSVTAADTAVYYCARRYGTSYPDYGDANGFDPWGQGTLVTVSS
VL: B1 VL with S34A
B5: 2/99 VH19/VL6 (antibody, V domains shown)
VH: B4 VH with Q2S, L3M, E15Q, V36I, P39H, N59A, V77F
VL: B1 VL
B6: 2/99 VH5/VL7 (antibody, V domains shown)
VH: B2 VH with V1Q, Q2S, L3M, V4E, Q116P
VL: B1 VL with S34A
B7: 2/99 VH20/VL6 (antibody, V domains shown)
VH: B4 VH with Q2S, L3M, E15Q, V36I, P39H, N59A
VL: B1 VL
B8: 2/99 VH5/VL8 (antibody, V domains shown)
VH: B2 VH with V1Q, Q2S, L3M, V4E, Q116P
VL: B1 VL with I2Y
B9: 2/99 VH6/VL7 (antibody, V domains shown)
VH: B2 VH with V1Q, V47I
VL: B1 VL with S34A
B10: 2/99 VH11/VL7 (antibody, V domains shown)
VH: B2 VH with V1Q, V4L, T6S, I11V
VL: B1 VL with S34A
B11: 2/99 VH6/VL8 (antibody, V domains shown)
VH: B2 VH with V1Q, V47I
VL: B1 VL with I2Y
B12: 2/99 VH7/VL7 (antibody, V domains shown)
VH: B2 VH with V1Q, V47I, D60S, S61W, V62A
VL: B1 VL with S34A
B13: 2/99 VH18/VL6 (antibody, V domains shown)
VH: B1 VH with E16Q, P40H, N60A
VL: B1 VL
B14: 2/99 VH17/VL6 (antibody, V domains shown)
VH: B4 VH with V70K, Q116P
VL: B1 VL
B15: 2/99 VH17/VL7 (antibody, V domains shown)
VH: B4 VH with V70K, Q116P
VL: B1 VL with S34A
B16: 2/99 VH12/VL7 (antibody, V domains shown)
VH: B1 VH
VL: B1 VL with S34A
B17: 2/99 VH16/VL7 (antibody, V domains shown)
VH: B4 VH with Q116P
VL: B1 VL with S34A
B18: 2/99 VH13/VL7 (antibody, V domains shown)
VH: B1 VH with F78V
VL: B1 VL with S34A
B19: 2/99 VH2/VL7 (antibody, V domains shown)
VH: EVQLVETGGGLIQPGGSLRLSCAASGFSLSSYAMSWVRQAPGKGLEWVGYIWSGGSTDYADSVKGRFTISRDNSKNTLYLQMNSLRAEDTAVYYCARRYGTSYPDYGDANGFDPWGQGTLVTVSS
VL: B1 VL with S34A
B20: 2/99 VH22/VL7 (antibody, V domains shown)
VH: B4 VH with Q2S, L3M, E15Q, P39H, N59A, P60S, S61W, L62A
VL: B1 VL with S34A
B21: 2/99 VH23-DANG/VL7 (antibody, V domains shown)
VH: QSMQESGPGLVKPSQTLSLTCTVSGFSLSSYAMSWIRQHPGKGLEWIGYIWSGGSTDYASWAKSRVTISKTSTTVSLKLSSVTAADTAVYYCARRYGTSYPDYGDANGFDPWGQGTLVTVSS
VL: B1 VL with S34A
B22: 2/99 VH7/VL8 (antibody, V domains shown)
VH: B2 VH with V1Q, V47I, D60S, S61W, V62A
VL: B1 VL with I2Y
B23: 2/99 VH2/VL8 (antibody, V domains shown)
VH: B19 VH
VL: B1 VL with I2Y
B24: 2/99 VH22/VL6 (antibody, V domains shown)
VH: B4 VH with Q2S, L3M, E15Q, P39H, N59A, P60S, S61W, L62A
VL: B1 VL
B25: 2/99 VH20/VL7 (antibody, V domains shown)
VH: B4 VH with Q2S, L3M, E15Q, V36I, P39H, N59A
VL: B1 VL with S34A
B26: 2/99 VH18/VL7 (antibody, V domains shown)
VH: B1 VH with E16Q, P40H, N60A
VL: B1 VL with S34A
B27: 2/99 VH16/VL6 (antibody, V domains shown)
VH: B4 VH with Q116P
VL: B1 VL
B28: 2/99 VH9/VL7 (antibody, V domains shown)
VH: B2 VH with V1Q, V4L, T6S, I11V, S27T, L28F, R96K
VL: B1 VL with S34A
B29: 2/99 VH1/VL7 (antibody, V domains shown)
VH: B2 VH
VL: B1 VL with S34A
B30: 2/99 VH19/VL7 (antibody, V domains shown)
VH: B4 VH with Q2S, L3M, E15Q, V36I, P39H, N59A, V77F
VL: B1 VL with S34A
B31: 2/99 VH21/VL7 (antibody, V domains shown)
VH: B4 VH with Q2S, L3M, E15Q, V36I, P39H, N59A, P60S, S61W, L62A
VL: B1 VL with S34A
B32: 2/99 VH8/VL7 (antibody, V domains shown)
VH: QQLVETGGGLIQPGGSLRLSCAASGFSLSSYAMSWVRQAPGKGLEWIGYIWSGGSTDYASWAKGRFTISKTSTTLYLQMNSLRAEDTAVYYCARRYGTSYPDYGDANGFDPWGQGTLVTVSS
VL: B1 VL with S34A
B33: 2/99 VH15/VL6 (antibody, V domains shown)
VH: B4 VH
VL: B1 VL
B34: 2/99 VH21/VL6 (antibody, V domains shown)
VH: B4 VH with Q2S, L3M, E15Q, V36I, P39H, N59A, P60S, S61W, L62A
VL: B1 VL

The target of this assay is T1, human transferrin receptor (recombinant, for surface plasmon resonance) (human, UniProt P02786 89-760).
T1 construct: also called huTfR; human transferrin receptor-biotinylated
T1 sequence (P02786 89-760 limits assumed): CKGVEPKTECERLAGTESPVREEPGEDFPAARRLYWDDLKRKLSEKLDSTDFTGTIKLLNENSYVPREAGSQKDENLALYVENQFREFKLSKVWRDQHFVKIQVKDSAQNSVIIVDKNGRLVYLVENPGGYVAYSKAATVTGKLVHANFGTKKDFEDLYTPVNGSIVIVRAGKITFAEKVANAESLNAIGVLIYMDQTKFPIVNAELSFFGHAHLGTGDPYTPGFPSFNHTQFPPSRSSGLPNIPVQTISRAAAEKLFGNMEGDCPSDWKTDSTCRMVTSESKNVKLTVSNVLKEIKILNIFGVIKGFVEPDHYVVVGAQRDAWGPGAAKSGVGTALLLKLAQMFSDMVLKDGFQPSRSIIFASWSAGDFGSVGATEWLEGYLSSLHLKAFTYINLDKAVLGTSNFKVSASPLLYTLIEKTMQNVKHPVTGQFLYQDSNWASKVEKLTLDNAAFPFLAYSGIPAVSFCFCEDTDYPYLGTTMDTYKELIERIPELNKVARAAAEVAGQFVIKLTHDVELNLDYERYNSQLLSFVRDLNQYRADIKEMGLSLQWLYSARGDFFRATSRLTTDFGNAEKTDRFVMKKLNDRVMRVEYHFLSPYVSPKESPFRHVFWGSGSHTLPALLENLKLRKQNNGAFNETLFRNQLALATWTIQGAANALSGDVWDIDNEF
Put plainly: SPR 25C.
As a reminder, the koff is a measure of how fast the partners let go of each other. As for B1, the dissociation rate constant (koff) was 0.00705 s⁻¹.
Next, B2: 0.00485 s⁻¹; B3: 0.00365 s⁻¹; B4: 0.00543 s⁻¹.
Under B5 stands 0.001 s⁻¹.
Under B6 stands 0.00697 s⁻¹; under B7, 0.00606 s⁻¹; under B8, 0.00378 s⁻¹.
In the case of B9, the dissociation rate constant (koff) was determined as 0.00563 s⁻¹.
B10: the dissociation rate constant (koff) was 0.00781 s⁻¹.
Next, B11: 0.00301 s⁻¹; B12: 0.00366 s⁻¹; B13: 0.00674 s⁻¹.
As for B14, the off-rate (koff) was found to be 0.00171 s⁻¹.
Next, B15: 0.00233 s⁻¹; B16: 0.00771 s⁻¹; B17: 0.00525 s⁻¹.
Next, B18: 0.00668 s⁻¹.
Under B19 stands 0.0075 s⁻¹; under B20, 0.00337 s⁻¹; under B21, 0.00155 s⁻¹.
On to B22, for which the koff came out at 0.00172 s⁻¹.
Next, B23: 0.00394 s⁻¹.
Under B24 stands 0.00214 s⁻¹; under B25, 0.00714 s⁻¹.
Under B26 stands 0.00766 s⁻¹.
As to B27, the dissociation rate constant (koff) amounted to 0.00339 s⁻¹.
Under B28 stands 0.00761 s⁻¹.
Next, B29: 0.00733 s⁻¹; B30: 0.001 s⁻¹; B31: 0.00238 s⁻¹.
Next, B32: 0.00231 s⁻¹; B33: 0.0035 s⁻¹.
On to B34, for which the koff came to 0.00207 s⁻¹.
